Test results published in US20230365641A1 (XILIO DEVELOPMENT, published 2023).

Target: PD-1 (antigen of the ELISA and of the in vitro affinity measurement) (UniProt Q15116 25-167, limits assumed)
Test: kinetic binding table: TC4 captured as ligand (capture level 74.3 RU), hPD1-his as sample; method not given

Chain of PD-1 (antigen of the ELISA and of the in vitro affinity measurement) (Q15116 25-167 limits assumed): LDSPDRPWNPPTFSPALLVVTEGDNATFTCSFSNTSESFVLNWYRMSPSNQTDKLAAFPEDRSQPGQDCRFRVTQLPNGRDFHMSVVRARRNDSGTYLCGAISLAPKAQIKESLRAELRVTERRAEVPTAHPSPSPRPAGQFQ

Kd: 6.58 nM
koff: 0.00306 s⁻¹
kon: 465000 M⁻¹ s⁻¹
B1: TC4 (Fc fusion)
heavy 1: QVQLVQSGVEVKKPGASVKVSCKASGYTFTNYYMYWVRQAPGQGLEWMGGINPSNGGTNFNEKFKNRVTLTTDSSTTTAYMELKSLQFDDTAVYYCARRDYRFDMGFDYWGQGTTVTVSSASTKGPSVFPLAPSSKSTSGGTAALGCLVKDYFPEPVTVSWNSGALTSGVHTFPAVLQSSGLYSLSSVVTVPSSSLGTQTYICNVNHKPSNTKVDKKVEPKSCDKTHTCPPCPAPELLGGPSVFLFPPKPKDTLMISRTPEVTCVVVDVSHEDPEVKFNWYVDGVEVHNAKTKPREEQYASTYRVVSVLTVLHQDWLNGKEYKCKVSNKALPAPIEKTISKAKGQPREPQVYTLPPCRDELTKNQVSLWCLVKGFYPSDIAVEWESNGQPENNYKTTPPVLDSDGSFFLYSKLTVDKSRWQQGNVFSCSVMHEALHNRFTQKSLSLSPGGGSSPPGGGSSGGGSGPAPTSSSTKKTQLQLEHLLLDLQMILNGINNYKNPKLTAMLTAKFAMPKKATELKHLQCLEEALKPLEEVLNLAQSKNFHLRPRDLISNINVIVLELKGSETTFMCEYADETATIVEFLNRWITFAQSIISTLT
heavy 2: QVQLVQSGVEVKKPGASVKVSCKASGYTFTNYYMYWVRQAPGQGLEWMGGINPSNGGTNFNEKFKNRVTLTTDSSTTTAYMELKSLQFDDTAVYYCARRDYRFDMGFDYWGQGTTVTVSSASTKGPSVFPLAPSSKSTSGGTAALGCLVKDYFPEPVTVSWNSGALTSGVHTFPAVLQSSGLYSLSSVVTVPSSSLGTQTYICNVNHKPSNTKVDKKVEPKSCDKTHTCPPCPAPELLGGPSVFLFPPKPKDTLMISRTPEVTCVVVDVSHEDPEVKFNWYVDGVEVHNAKTKPREEQYASTYRVVSVLTVLHQDWLNGKEYKCKVSNKALPAPIEKTISKAKGQPREPQVCTLPPSRDELTKNQVSLSCAVKGFYPSDIAVEWESNGQPENNYKTTPPVLDSDGSFFLVSKLTVDKSRWQQGNVFSCSVMHEALHNHYTQKSLSLSPGGPPSGSSPVPLSLYSGSGGGAVNGTSQFTCFYNSRANISCVWSQDGALQDTSCQVHAWPDRRRWNQTCELLPVSQASWACNLILGAPDSQKLTTVDIVTLRVLCREGVRWRVMAIQDFKPFENLRLMAPISLQVVHVETHRSNISWEISQASHYFERHLEFEARTLSPGHTWEEAPLLTLKQKQEWISLETLTPDTQYEFQVRVKPLQGEFTTWSPWSQPLAFRTKPAALGKD
light: EIVLTQSPATLSLSPGERATLSCRASKGVSTSGYSYLHWYQQKPGQAPRLLIYLASYLESGVPARFSGSGSGTDFTLTISSLEPEDFAVYYCQHSRDLPLTFGGGTKVEIKRTVAAPSVFIFPPSDEQLKSGTASVVCLLNNFYPREAKVQWKVDNALQSGNSQESVTEQDSKDSTYSLSSTLTLSKADYEKHKVYACEVTHQGLSSPVTKSFNRGEC
